According to paper PMC5793714, “Functional implications of corticosteroid-binding globulin N-glycosylation” (Journal of Molecular Endocrinology, 2017):

What was measured:
Western blot of medium = settings: glycan lost, control: untreated CHO-S cells
[1] = loss of cortisol-binding capacity after protease incubation; settings: glycan lost; control: un-mutated CBG
[2] = Western blot of culture medium; settings: glycan lost; control: rat CBG

Protein	expression_or_secretion, other: % of untreated (Western blot of medium; same construct)	other: protease susceptibility [1]	other results
human CBG (corticosteroid-binding globulin): tunicamycin (human CBG) (protein) parent chain: MPLLLYTCLLWLPTSGLWTVQAMDPNAAYVNMSNHHRGLASANVDFAFSLYKHLVALSPKKNIFISPVSISMALAMLSLGTCGHTRAQLLQGLGFNLTERSETEIHQGFQHLHQLFAKSDTSLEMTMGNALFLDGSLELLESFSADIKHYYESEVLAMNFQDWATASRQINSYVKNKTQGKIVDLFSGLDSPAILVLVNYIFFKGTWTQPFDLASTREENFYVDETTVVKVPMMLQSSTISYLHDSELPCQLVQMNYVGNGTVFFILPDKGKMNTVIAALSRDTINRWSAGLTSSQVDLYIPKVTISGVYDLGDVLEEMGIADLFTNQANFSRITQDAQLKSSKVVHKAVLQLNEEGVDTAGSTGVTLNLTSKPIILRFNQPFIIMIFDHFTWSSLFLARVMNPV	decreases	–	–
human CBG (corticosteroid-binding globulin): N347Q (protein) parent chain: MPLLLYTCLLWLPTSGLWTVQAMDPNAAYVNMSNHHRGLASANVDFAFSLYKHLVALSPKKNIFISPVSISMALAMLSLGTCGHTRAQLLQGLGFNLTERSETEIHQGFQHLHQLFAKSDTSLEMTMGNALFLDGSLELLESFSADIKHYYESEVLAMNFQDWATASRQINSYVKNKTQGKIVDLFSGLDSPAILVLVNYIFFKGTWTQPFDLASTREENFYVDETTVVKVPMMLQSSTISYLHDSELPCQLVQMNYVGNGTVFFILPDKGKMNTVIAALSRDTINRWSAGLTSSQVDLYIPKVTISGVYDLGDVLEEMGIADLFTNQANFSRITQDAQLKSSKVVHKAVLQLNEEGVDTAGSTGVTLNLTSKPIILRFNQPFIIMIFDHFTWSSLFLARVMNPV	–	increases	–
human CBG (corticosteroid-binding globulin): T349A (protein) parent chain: MPLLLYTCLLWLPTSGLWTVQAMDPNAAYVNMSNHHRGLASANVDFAFSLYKHLVALSPKKNIFISPVSISMALAMLSLGTCGHTRAQLLQGLGFNLTERSETEIHQGFQHLHQLFAKSDTSLEMTMGNALFLDGSLELLESFSADIKHYYESEVLAMNFQDWATASRQINSYVKNKTQGKIVDLFSGLDSPAILVLVNYIFFKGTWTQPFDLASTREENFYVDETTVVKVPMMLQSSTISYLHDSELPCQLVQMNYVGNGTVFFILPDKGKMNTVIAALSRDTINRWSAGLTSSQVDLYIPKVTISGVYDLGDVLEEMGIADLFTNQANFSRITQDAQLKSSKVVHKAVLQLNEEGVDTAGSTGVTLNLTSKPIILRFNQPFIIMIFDHFTWSSLFLARVMNPV	–	increases	–
human CBG (corticosteroid-binding globulin): tunicamycin (CBG N238) (protein) parent chain: MPLLLYTCLLWLPTSGLWTVQAMDPNAAYVNMSNHHRGLASANVDFAFSLYKHLVALSPKKNIFISPVSISMALAMLSLGTCGHTRAQLLQGLGFNLTERSETEIHQGFQHLHQLFAKSDTSLEMTMGNALFLDGSLELLESFSADIKHYYESEVLAMNFQDWATASRQINSYVKNKTQGKIVDLFSGLDSPAILVLVNYIFFKGTWTQPFDLASTREENFYVDETTVVKVPMMLQSSTISYLHDSELPCQLVQMNYVGNGTVFFILPDKGKMNTVIAALSRDTINRWSAGLTSSQVDLYIPKVTISGVYDLGDVLEEMGIADLFTNQANFSRITQDAQLKSSKVVHKAVLQLNEEGVDTAGSTGVTLNLTSKPIILRFNQPFIIMIFDHFTWSSLFLARVMNPV	decreases	–	–
rat CBG: tunicamycin (protein) parent chain: MSLALYTCLLWLCTSGLWTAQASTNESSNSHRGLAPTNVDFAFNLYQRLVALNPDKNTLISPVSISMALAMVSLGSAQTQSLQSLGFNLTETSEAEIHQSFQYLNYLLKQSDTGLEMNMGNAMFLLQKLKLKDSFLADVKQYYESEALAIDFEDWTKASQQINQHVKDKTQGKIEHVFSDLDSPASFILVNYIFLRGIWELPFSPENTREEDFYVNETSTVKVPMMVQSGSIGYFRDSVFPCQLIQMDYVGNGTAFFILPDQGQMDTVIAALSRDTIDRWGKLMTPRQVNLYIPKFSISDTYDLKDMLEDLNIKDLLTNQSDFSGNTKDVPLTLTMVHKAMLQLDEGNVLPNSTNGAPLHLRSEPLDIKFNKPFILLLFDKFTWSSLMMSQVVNPA	–	–	expression_or_secretion, other: % of untreated (Western blot of medium): decreases
rat CBG: N230D (protein) parent chain: MSLALYTCLLWLCTSGLWTAQASTNESSNSHRGLAPTNVDFAFNLYQRLVALNPDKNTLISPVSISMALAMVSLGSAQTQSLQSLGFNLTETSEAEIHQSFQYLNYLLKQSDTGLEMNMGNAMFLLQKLKLKDSFLADVKQYYESEALAIDFEDWTKASQQINQHVKDKTQGKIEHVFSDLDSPASFILVNYIFLRGIWELPFSPENTREEDFYVNETSTVKVPMMVQSGSIGYFRDSVFPCQLIQMDYVGNGTAFFILPDQGQMDTVIAALSRDTIDRWGKLMTPRQVNLYIPKFSISDTYDLKDMLEDLNIKDLLTNQSDFSGNTKDVPLTLTMVHKAMLQLDEGNVLPNSTNGAPLHLRSEPLDIKFNKPFILLLFDKFTWSSLMMSQVVNPA	–	–	expression_or_secretion [2]: no change
